Series [1] addresses T1, AdpA (Streptomyces coelicolor) (UniProt Q9L062).
T1 sequence: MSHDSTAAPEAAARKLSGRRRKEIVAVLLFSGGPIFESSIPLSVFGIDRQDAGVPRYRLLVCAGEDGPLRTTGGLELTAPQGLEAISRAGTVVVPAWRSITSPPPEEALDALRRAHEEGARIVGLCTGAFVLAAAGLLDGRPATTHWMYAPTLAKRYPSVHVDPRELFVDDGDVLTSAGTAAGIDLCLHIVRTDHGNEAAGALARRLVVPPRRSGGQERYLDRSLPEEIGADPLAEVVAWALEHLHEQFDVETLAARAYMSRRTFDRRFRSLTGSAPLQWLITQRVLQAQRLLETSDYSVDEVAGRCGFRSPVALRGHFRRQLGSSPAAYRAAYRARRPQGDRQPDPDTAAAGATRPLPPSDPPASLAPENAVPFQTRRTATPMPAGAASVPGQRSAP
Briefly: EMSA. As to conditions: EMSA: 20 mM Tris-HCl, 2 mM EDTA, 20 mM KCl, 0.5 mM DTT, pH 8.0, 30 C 20 min, 16.5-22 nM probe; FP: 10 mM Tris-HCl, 75 mM NaCl, pH 7.5, 37 C 15 min, 1 nM FAM …. A general note: A gel shift assay detects complexes by their altered migration in electrophoresis.

For series [2], the target named is T2, AdpA C62S C62S (Streptomyces coelicolor) (UniProt Q9L062).
T2 sequence: T1 sequence with C62S
Briefly: EMSA. The conditions noted are these: EMSA: 20 mM Tris-HCl, 2 mM EDTA, 20 mM KCl, 0.5 mM DTT, pH 8.0, 30 C 20 min, 16.5-22 nM probe; FP: 10 mM Tris-HCl, 75 mM NaCl, pH 7.5, 37 C 15 min, 1 nM FAM ….

Here are results for two sequences from publication PMC9239190.

Residue numbers refer to the chain shown, from its start.

Consider “ACACATCCCGCATCGGTGATTACATGGACACGTCCCAATAAGTTGAATCTCATCTGCGCCCCCGTCGAGATTCTCCGTCTCCTGGGGGCGACAATAACAGGCCTACTCAACAGATTTCAATGTGCTTGCCGTCACAAGCGATCTCCTATTGATCAAAAATTAATCAGTGCAGCGAGCTGCACTGATTAATTTTTGCTGGATTTTACCGAGAGGCAGTGGTCGAGGCTTCCGAATCAATAGAATCTGGCATTCCTGATACGGCTGGGTCC (double strand) [PactII-4 probe]”, for which the binding result in series [1] is recorded as “binds”.

As to “GCACTCCAGTCGGTTACCCAGCCCATACCGGCGCCGTCCTCTCCCGAATCGAGGCTCCCCCACGGCGGCAGCGGCATATTCACCGCCGCCAGTTGAGGACGTTACGGAAGGTGGGCACAGCGCAACACCCCCTTCGGGCCCAATCTTGAATGGCCCGAACGGACTATGGGTAAGCGGCAGATCACCCGGGGGAGTGAGCTGGCGACATGCGCGACGATCCCGACATTCAGGTCATCTCTGTTGCGCCACAACGGACACCGATTGACACACGAGGCGGATTCGGA (double strand) [PwblA probe]”, the binding result in series [1] and in series [2] was “binds” each time.
